Assay results as given in patent publication US20260166085A1 (BEAM THERAPEUTICS, published 2026).
Changes are numbered by the printed parent chain.

What was measured:
[1] = biological target: T1, Wild type CD117 expressed on cells (M07e cells, unedited human CD34+ HSPCs) (human, UniProt P10721 26-976); experiment: cell-based or functional assay
[2] = biological target: T2, Wild type CD117 purified protein (human, UniProt P10721 26-520, limits assumed); experiment: binding kinetics grade, FIGS. 55A-55C
T2 construct: Protein used in BLI/kinetics and cryo-EM; also called wt CD117; Wt CD117
T2 sequence (P10721 26-520 limits assumed): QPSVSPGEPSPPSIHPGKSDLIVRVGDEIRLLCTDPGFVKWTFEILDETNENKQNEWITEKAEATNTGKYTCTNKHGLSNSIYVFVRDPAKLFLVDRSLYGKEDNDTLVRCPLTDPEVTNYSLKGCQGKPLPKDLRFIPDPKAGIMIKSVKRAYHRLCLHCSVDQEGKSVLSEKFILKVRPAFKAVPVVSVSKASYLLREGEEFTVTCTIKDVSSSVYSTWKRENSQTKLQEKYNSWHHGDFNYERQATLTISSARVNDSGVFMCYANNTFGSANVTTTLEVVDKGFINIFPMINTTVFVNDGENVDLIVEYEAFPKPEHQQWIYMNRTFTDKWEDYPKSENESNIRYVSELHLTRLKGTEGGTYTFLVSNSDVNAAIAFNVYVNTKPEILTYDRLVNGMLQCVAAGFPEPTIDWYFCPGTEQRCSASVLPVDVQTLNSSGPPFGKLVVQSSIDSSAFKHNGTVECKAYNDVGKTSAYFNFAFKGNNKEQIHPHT

[3] = biological target: T2, Wild type CD117 purified protein; experiment: binding kinetics, antibody 333.3 to 5.2 nM (FIGS. 58A-58D)
[4] = biological target: T1, Wild type CD117 expressed on cells …; experiment: flow cytometry (MFI) on M07e cells (FIG. 59)
[5] = biological target: T1, Wild type CD117 expressed on cells …; experiment: flow cytometry on M07e cells, AF647 secondary (FIG. 76A)
[6] = biological target: T1, Wild type CD117 expressed on cells …; experiment: cell-based or functional assay; remark: listed apart in the source
[7] = biological target: T1, Wild type CD117 expressed on cells …; experiment: summary Table 75 (repeats Table 73)
[8] = biological target: T2, Wild type CD117 purified protein; experiment: summary Table 75 (repeats Table 71)
[9] = biological target: T2, Wild type CD117 purified protein; experiment: monovalent KD, CD117 titrated (FIGS. 73A-73E)
[10] = biological target: T2, Wild type CD117 purified protein; experiment: binding kinetics, FIGS. 45A-45K
[11] = biological target: CC200 variant of CD117 (S261G) purified protein (human, UniProt P10721 26-520, limits assumed); experiment: binding kinetics, FIGS. 45A-45K
CC200 variant of CD117 (S261G) purified protein, sequence (P10721 26-520 S261G limits assumed): as the sequence (P10721 26-520 limits assumed) above, with S236G counted along it

[12] = biological target: T3, CC128 variant of CD117 (Y259C + N260D) purified protein (human, UniProt P10721 26-520, limits assumed); experiment: binding kinetics, FIGS. 45A-45K
T3 construct: also called CC128-edited CD117 as purified protein
T3 sequence (P10721 26-520 Y259C/N260D limits assumed): as the sequence (P10721 26-520 limits assumed) above, with Y234C, N235D counted along it

[13] = biological target: T2, Wild type CD117 purified protein; experiment: KD, method not stated (Table 8B)
Cyno CD117 = biological target: T4, Cyno CD117 (cynomolgus, UniProt F6V858 26-520 (rhesus entry)); experiment: KD, method not stated (Table 8B)
T4 construct: also called cynomolgus CD117
T4 sequence (chain, as listed by the source): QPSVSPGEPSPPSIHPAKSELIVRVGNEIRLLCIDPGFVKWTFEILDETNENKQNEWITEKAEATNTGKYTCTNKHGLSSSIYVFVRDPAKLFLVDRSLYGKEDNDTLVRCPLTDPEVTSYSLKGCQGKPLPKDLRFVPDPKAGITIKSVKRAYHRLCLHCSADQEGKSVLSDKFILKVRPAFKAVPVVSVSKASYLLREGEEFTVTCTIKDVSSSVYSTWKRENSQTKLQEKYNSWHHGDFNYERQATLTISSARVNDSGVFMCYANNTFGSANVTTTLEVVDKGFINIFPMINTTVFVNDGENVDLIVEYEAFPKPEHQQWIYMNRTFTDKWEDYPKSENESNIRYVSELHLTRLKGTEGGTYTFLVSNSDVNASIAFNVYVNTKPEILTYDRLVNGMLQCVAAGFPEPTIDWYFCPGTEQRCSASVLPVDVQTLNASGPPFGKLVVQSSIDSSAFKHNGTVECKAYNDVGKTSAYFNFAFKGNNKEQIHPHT

[14] = biological target: T5, CC128 variant of CD117 (Y259C + N260D) expressed on cells (M07e, CD34+ HSPCs) (human, UniProt P10721 26-976); experiment: binding to edited M07e cells (Table 8B)
T5 construct: Edited cell pools also hold minor alleles (Y259C alone, N260D alone); also called CC128-edited CD117; CC128-M07e
T5 sequence (P10721 26-976 Y259C/N260D limits assumed): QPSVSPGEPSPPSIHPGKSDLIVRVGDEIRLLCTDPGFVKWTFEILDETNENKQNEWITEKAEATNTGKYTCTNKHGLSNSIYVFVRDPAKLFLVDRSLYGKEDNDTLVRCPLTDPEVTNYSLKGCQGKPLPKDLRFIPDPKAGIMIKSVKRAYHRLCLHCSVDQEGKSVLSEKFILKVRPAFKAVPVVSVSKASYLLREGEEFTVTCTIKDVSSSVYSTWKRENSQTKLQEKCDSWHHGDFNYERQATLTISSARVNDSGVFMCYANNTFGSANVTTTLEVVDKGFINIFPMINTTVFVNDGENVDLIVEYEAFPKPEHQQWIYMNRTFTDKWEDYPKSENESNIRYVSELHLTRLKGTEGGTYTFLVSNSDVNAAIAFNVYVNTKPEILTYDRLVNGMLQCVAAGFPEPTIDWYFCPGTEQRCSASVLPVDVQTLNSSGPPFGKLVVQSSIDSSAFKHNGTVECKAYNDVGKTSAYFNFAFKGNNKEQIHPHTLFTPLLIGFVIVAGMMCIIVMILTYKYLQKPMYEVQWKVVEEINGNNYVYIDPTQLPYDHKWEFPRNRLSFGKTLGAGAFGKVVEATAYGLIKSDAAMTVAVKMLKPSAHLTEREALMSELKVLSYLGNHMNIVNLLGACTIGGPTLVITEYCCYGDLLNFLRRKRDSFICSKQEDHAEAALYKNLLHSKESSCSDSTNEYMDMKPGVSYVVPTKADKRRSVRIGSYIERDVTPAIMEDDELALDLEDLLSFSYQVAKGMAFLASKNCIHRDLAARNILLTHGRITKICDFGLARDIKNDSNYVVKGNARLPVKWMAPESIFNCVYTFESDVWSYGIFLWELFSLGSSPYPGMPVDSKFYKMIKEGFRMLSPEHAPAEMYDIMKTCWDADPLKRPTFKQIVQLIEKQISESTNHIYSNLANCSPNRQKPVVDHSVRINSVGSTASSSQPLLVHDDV

[15] = biological target: T3, CC128 variant of CD117 (Y259C + N260D) …; experiment: BLI (Octet), CC128 variant on SA biosensor, antibody titrated 1:2 from 2.5 µM
Protocol: Binding to the CC128 variant of CD117 was determined using streptavidin (SA) biosensors, which were allowed to bind the CC128 variant from a 5 μg/ml solution thereof. The SA biosensors were then titrated with monoclonal antibodies starting at 2.5 μM and using titration increments of 1:2. Data was analyzed using the Octet Analysis Studio Software.

[16] = biological target: wild type CD117 extracellular domain (ECD) protein (human, UniProt P10721 26-524); experiment: BLI (Octet), antibody on AHC biosensor, CD117 ECD titrated 1:2 from 345 nM
wild type CD117 extracellular domain (ECD) protein, sequence (P10721 26-524 limits assumed): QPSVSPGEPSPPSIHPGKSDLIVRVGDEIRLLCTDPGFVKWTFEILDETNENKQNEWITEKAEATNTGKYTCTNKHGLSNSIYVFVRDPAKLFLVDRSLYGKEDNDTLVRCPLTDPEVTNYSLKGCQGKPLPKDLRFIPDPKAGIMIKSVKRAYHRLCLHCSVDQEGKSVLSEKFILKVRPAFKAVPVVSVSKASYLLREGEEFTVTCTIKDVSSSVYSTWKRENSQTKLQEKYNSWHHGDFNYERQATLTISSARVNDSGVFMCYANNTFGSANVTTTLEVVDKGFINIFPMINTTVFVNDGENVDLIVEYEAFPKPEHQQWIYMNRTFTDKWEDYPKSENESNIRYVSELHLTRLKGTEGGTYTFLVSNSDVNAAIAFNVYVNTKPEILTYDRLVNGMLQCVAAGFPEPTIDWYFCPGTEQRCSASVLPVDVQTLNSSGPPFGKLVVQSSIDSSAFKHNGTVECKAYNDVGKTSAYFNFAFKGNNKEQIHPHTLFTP
Protocol: The AHC biosensor data was analyzed using Octet Analysis Studio software.

[17] = biological target: T1, Wild type CD117 expressed on cells …; experiment: flow cytometry on M07e cells expressing wild type CD117, 1 h (FIG. 87A)
[18] = biological target: T6, CC89 variant of CD117 (T144A) on M07e cells (human, UniProt P10721 26-976); experiment: binding to edited M07e cells (Table 8B)
T6 construct: also called CC89-M07e
T6 sequence (P10721 26-976 T144A limits assumed): as the sequence (P10721 26-976 Y259C/N260D limits assumed) above, with T119A, C234Y, D235N counted along it

T1 sequence (P10721 26-976 limits assumed): as the sequence (P10721 26-976 Y259C/N260D limits assumed) above, with C234Y, D235N counted along it

B1: ABTx167 (antibody, human IgG1, kappa, L234A L235A)
heavy: QVQLVQSGAAVKKPGESLKISCKGSGYRFTSYWIGWVRQMPGKGLEWMGIIYPGDSDTRYSPSFQGQVTISAGKSISTAYLQWSSLKASDTAMYYCARHGRGYNGYEGAFDIWGQGTMVTVSSASTKGPSVFPLAPSSKSTSGGTAALGCLVKDYFPEPVTVSWNSGALTSGVHTFPAVLQSSGLYSLSSVVTVPSSSLGTQTYICNVNHKPSNTKVDKKVEPKSCDKTHTCPPCPAPEAAGGPSVFLFPPKPKDTLYITREPEVTCVVVAVSHEDPEVKFNWYVDGVEVHNAKTKPREEQYNSTYRVVSVLTVLHQDWLNGKEYKCKVSNKALPAPIEKTISKAKGQPREPQVYTLPPSRDELTKNQVSLTCLVKGFYPSDIAVEWESNGQPENNYKTTPPVLDSDGSFFLYSKLTVDKSRWQQGNVFSCSVMHEALHNHYTQKSLSLSPG
light: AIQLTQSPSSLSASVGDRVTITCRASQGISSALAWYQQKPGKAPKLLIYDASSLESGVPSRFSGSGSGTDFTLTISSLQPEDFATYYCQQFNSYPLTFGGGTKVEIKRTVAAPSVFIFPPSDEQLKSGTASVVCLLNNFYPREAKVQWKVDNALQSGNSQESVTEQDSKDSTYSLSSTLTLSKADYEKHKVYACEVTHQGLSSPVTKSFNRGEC
IC50 [M], viability of unedited HSCs with 100 ng/mL SCF, 5-7 days [1]: 2.56e-07 M

B2: ABTx252 (antibody, human IgG1, kappa, V domains shown)
VH: QVQLVQSGAAVKKPGESLKISCKGSGYRFTSYWIGWVRQMPGKGLEWMGIIYPGDSDTRYSPSFQGQVTISAGKSISTAYLQWSSLKASDTAMYYCARHGRGYDGYEGAFDIWGQGTMVTVSS
VL: AIQLTQSPSSLSASVGDRVTITCRASQGISSALAWYQQKPGKAPKLLIYDASSLESGVPSRFSGSGSGTDFTLTISSLQPEDFATYYCQQFNSHPLTFGGGTKVEIKR
binding result [2]: no binding

B3: ABTx253 (antibody, human IgG1, kappa, V domains shown)
VH: B2 VH
VL: B2 VL with N92S, H94Y
IC50 [M], viability of unedited HSCs with 100 ng/mL SCF, 5-7 days [1]: 2.21e-06 M | Kd [3]: 13.1 nM | koff [3]: 0.00408 s⁻¹ | kon [3]: 312000 M⁻¹ s⁻¹ | EC50 [4]: 0.0529 nM

B4: ABTx196 (antibody, human IgG1, V domains shown)
VH: EVQLVESGGGLVQPGRSLRLSCAASGFTFDDYAMHWVRQAPGKGLEWVSGISWNSGTIGYADSVKGRFTNSRDNAKNSLYLEMNSLRAEDTALYYCAKDSPPGYCSSASCYGAFDIWGQGTMVTVSS
VL: DVVMTQSPGTLSLSPGERATLSCRASQSVSSSYLAWYQQKPGQAPRLLIYGASSRATGIPDRFSGSGSGTDFTLTISRLEPEDFAVYYCQQSETCLTFGGGTKLEIK
EC50 [5]: 5.21 nM | IC50 (M), depletion of human CD34+ HSPCs [6]: 1.3e-05 M | EC50 [7]: 5.21 nM | Kd [8]: 8.18 nM | Kd [9]: 8.18 nM | koff [9]: 0.000691 s⁻¹ | kon [9]: 84400 M⁻¹ s⁻¹

B5: ABTx198 (antibody, human IgG1, V domains shown)
VH: B4 VH with S106A
VL: B4 VL with S92D, E93S, T94L, C95G
EC50 [5]: 5.42 nM | IC50 (M), depletion of human CD34+ HSPCs [6]: 3.59e-06 M | EC50 [7]: 5.42 nM | Kd [8]: 1.2 nM | Kd [9]: 1.2 nM | koff [9]: 8.74e-05 s⁻¹ | kon [9]: 72800 M⁻¹ s⁻¹

B6: ABTx052 variant VL_Y94S (antibody, human IgG1, V domains shown)
VH: B2 VH with D104N
VL: AIQLTQSPSSLSASVGDRVTITCRASQGISSALAWYQQKPGKAPKLLIYDASSLESGVPSRFSGSGSGTDFTLTISSLQPEDFATYYCQQFNSSPLTFGGGTKVEIK
Kd [10]: 3.38 nM | koff [10]: 0.00218 s⁻¹ | kon [10]: 643000 M⁻¹ s⁻¹ | binding result [11]: no binding | binding result [12]: no binding

B7: ABTx025 (antibody, human IgG1, kappa, V domains shown)
VH: B4 VH
VL: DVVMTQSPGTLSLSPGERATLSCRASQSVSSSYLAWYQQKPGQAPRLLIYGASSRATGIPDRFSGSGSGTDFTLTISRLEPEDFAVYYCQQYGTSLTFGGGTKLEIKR
Kd [13]: 1.25 nM | Kd (Cyno CD117): 5.31 nM | binding result [14]: no binding | Kd [8]: 1470 nM | Kd [9]: 1470 nM | koff [9]: 0.0509 s⁻¹ | kon [9]: 37200 M⁻¹ s⁻¹

B8: ABTx308 (antibody, human IgG1, kappa, L234A L235A, V domains shown)
VH: B2 VH with R59K, G105A, E107D
VL: B2 VL with N92S, H94Y
notes: Fc with LALADA
Kd [15]: 7.49 nM | Kd [16]: 8.48 nM | koff [16]: 0.0166 s⁻¹ | kon [16]: 1.95e+06 M⁻¹ s⁻¹ | EC50 [17]: 0.398 nM

B9: ABTx061 (antibody, human IgG1, kappa, V domains shown)
VH: B4 VH with T57S, N70I, E82Q, S100T, P102L, S107T, A108T
VL: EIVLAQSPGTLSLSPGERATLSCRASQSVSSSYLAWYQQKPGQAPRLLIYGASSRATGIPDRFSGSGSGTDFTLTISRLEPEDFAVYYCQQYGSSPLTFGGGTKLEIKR
Kd [13]: 18.6 nM | Kd (Cyno CD117): 29.5 nM | binding result [14]: no binding

B10: ABTx062 (antibody, human IgG1, kappa, V domains shown)
VH: B4 VH with A23S, N70I, E82Q, M122T
VL: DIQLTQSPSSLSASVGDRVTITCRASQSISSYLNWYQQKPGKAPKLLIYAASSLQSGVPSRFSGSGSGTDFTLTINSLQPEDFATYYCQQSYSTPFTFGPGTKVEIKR
Kd [13]: 18 nM | Kd (Cyno CD117): 31.8 nM | binding result [14]: no binding

B11: ABTx070 (antibody, human IgG1, kappa, V domains shown)
VH: EVQLVESGGGVVRPGGSLRLSCAASGFTFDDYGMSWVRQAPGKGLEWVSDINWNGGSTGYADSVKGRFTISRDNAKNSLYLQMNSLRAEDTALYYCARESWDGSGIYYMDVWGKGTTVTVSS
VL: DIVMTQSPSFLSASVGDRVTITCRASQGISSYLNWYQQKPGKAPKLLIYAASTLQNGVPSRFSGSGSGTDFTLTISSLQPEDFATYYCQQSYSTPITFGQGTRLEIKR
Kd [13]: 6.5 nM | Kd (Cyno CD117): 0.486 nM | binding result [18]: no binding

B12: ABTx071 (antibody, human IgG1, kappa, V domains shown)
VH: B11 VH with D50G, Y80H, D102N, G103Y, S104E, I106Y
VL: B11 VL with D1A, V3Q, N34A, D70E, S91L, Y92N, T94Y, I96Y, R103K
Kd [13]: 0.523 nM | Kd (Cyno CD117): 4.28 nM | binding result [18]: no binding
